In US20130071374A1 (UNIVERSITY OF MEDICINE AND DENTISTRY OF NEW JERSEY, published 2013):

Key:
PemK(His)6 = target: T1, PemK(His)6 (E. coli (plasmid R100), UniProt P13976 24-133); experiment: co-purification on Ni-NTA after co-expression
T1 construct: also called Kid

MazF(His)6 = MazF(His)6 (Escherichia coli, UniProt P0AE70 1-111); experiment: tricine SDS-PAGE of the purified complex, densitometry
MazF = target: T2, MazF (Escherichia coli, UniProt P0AE70 1-111); experiment: native PAGE, second dimension SDS-PAGE, densitometry
T2 sequence: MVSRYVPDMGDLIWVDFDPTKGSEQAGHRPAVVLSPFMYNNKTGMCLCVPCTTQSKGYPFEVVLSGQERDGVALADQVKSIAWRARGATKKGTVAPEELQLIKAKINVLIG

B1: PemI (other)
chain: MHTTRLKRVGGSVMLTVPPALLNALSLGTDNEVGMVIDNGRLIVEPYRRPQYSLAELLAQCDPNAEISAEEREWLDAPATGQEEI
B1: binds (PemK(His)6).

B2: MazE (other)
chain: MIHSSVKRWGNSPAVRIPATLMQALNLNIDDEVKIDLVDGKLIIEPVRKEPVFTLAELVNDITPENLHENIDWGEPKDKEVW
notes: also called antitoxin MazE; ChpAI
In the case of B2, the “ratio of MazF(His)6 to MazE in the complex” value (MazF(His)6) is reported as roughly 2.

B3: (His)6MazE (other)
chain: MIHSSVKRWGNSPAVRIPATLMQALNLNIDDEVKIDLVDGKLIIEPVRKEPVFTLAELVNDITPENLHENIDWGEPKDKEVW
notes: also called wild-type (His)6MazE; MazE with N-terminal (His)6 tag
In the case of B3, the “ratio of MazF to (His)6MazE in the complex” value (MazF) is reported as roughly 1.8.
